Reference: publication PMC5778602

Molecular target: T1, CstF-50 (full length, affinity tag removed) (human), Q05048
T1 chain: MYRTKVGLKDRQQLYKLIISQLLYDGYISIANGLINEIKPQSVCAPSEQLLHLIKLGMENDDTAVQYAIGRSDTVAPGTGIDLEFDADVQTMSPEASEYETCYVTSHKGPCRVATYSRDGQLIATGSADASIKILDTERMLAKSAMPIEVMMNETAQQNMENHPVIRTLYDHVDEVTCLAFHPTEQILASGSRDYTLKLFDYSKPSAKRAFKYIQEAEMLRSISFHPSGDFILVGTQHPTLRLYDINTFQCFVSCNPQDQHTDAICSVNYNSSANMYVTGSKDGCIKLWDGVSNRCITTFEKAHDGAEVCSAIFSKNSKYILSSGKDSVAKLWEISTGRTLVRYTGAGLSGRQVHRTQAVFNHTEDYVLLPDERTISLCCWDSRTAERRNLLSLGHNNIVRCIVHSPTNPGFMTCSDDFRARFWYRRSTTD
Assay: SEC-MALS
Conditions: remark: other sources report otherwise

- stoichiometry N: 2
B1: CstF-50 (full length, affinity tag removed), Q05048 1-431 (natural protein)
chain: MYRTKVGLKDRQQLYKLIISQLLYDGYISIANGLINEIKPQSVCAPSEQLLHLIKLGMENDDTAVQYAIGRSDTVAPGTGIDLEFDADVQTMSPEASEYETCYVTSHKGPCRVATYSRDGQLIATGSADASIKILDTERMLAKSAMPIEVMMNETAQQNMENHPVIRTLYDHVDEVTCLAFHPTEQILASGSRDYTLKLFDYSKPSAKRAFKYIQEAEMLRSISFHPSGDFILVGTQHPTLRLYDINTFQCFVSCNPQDQHTDAICSVNYNSSANMYVTGSKDGCIKLWDGVSNRCITTFEKAHDGAEVCSAIFSKNSKYILSSGKDSVAKLWEISTGRTLVRYTGAGLSGRQVHRTQAVFNHTEDYVLLPDERTISLCCWDSRTAERRNLLSLGHNNIVRCIVHSPTNPGFMTCSDDFRARFWYRRSTTD
